The source of these data is paper PMC12007268.

For assay [1], the target named is trastuzumab-EML (L309E/Q311M/M428L) (human). The experiment in a line: SPR; Biacore T200; trastuzumab-Fc variants amine-coupled to a CM5 chip (about 1,000 RU); hFcRn-His 1,000 to 62.5 nM in 1x PBST pH 6.0, 30 µl/min; 1:1 binding model (trastuzumab: steady state); triplicate.
The target of assay [2] is trastuzumab-YML (L309Y/Q311M/M428L) (human). Described as above.
Assay [3] concerns the target trastuzumab (wild-type Fc) (human). The description is as above.
Assay [4] addresses trastuzumab-PFc29 (Q311R/M428L) (human). The assay is described as above.
In assay [5] the target is trastuzumab-DHS (L309D/Q311H/N434S) (human). Described as above.
The target of assay [6] is human neonatal Fc receptor, His-tagged (hFcRn-His) (UniProt P55899). The experiment in a line: BLI; Octet R8; hFcRn-His (40 µg/ml) held on NTA biosensors; trastuzumab-Fc variants in PBS pH 6.0 bound for 20 s, then dissociation in PBS pH 7.4 for 5 s; initial on-rate from the first 2 s, initial off-rate from the first 1 s; values relative to trastuzumab. Background: In BLI a coated tip is dipped into the sample, and binding shifts an interference pattern.

Assay [7] concerns the target FcRn immobilised on the FcRn affinity column Gen2 (Roche Diagnostics) (human) (UniProt P55899). The experiment in a line: pH-gradient FcRn affinity column chromatography; FcRn affinity column Gen2 (Roche); pH gradient; retention time and pH of elution.
The target in assay [8] is human neonatal Fc receptor, His-tagged (hFcRn-His) (UniProt P55899). The experiment in a line: BLI (Octet R8). The note with it: PBS (composition not stated), PBS pH 6.0 for association, PBS pH 7.4 for dissociation; for Relative on-rate (initial association rate, normalised to trastuzumab) (fold relative to trastuzumab): pH 6.0; for Relative off-rate (initial dissociation rate, normalised to trastuzumab) (fold relative to trastuzumab): pH 7.4.

The target is the same in assay [9]. The experiment in a line: SPR (Biacore T200). The note with it: pH 6.0; 1× PBS (composition not stated); 1× PBST (pH 6.0). Background: SPR reads the build-up and loss of mass on a sensor chip optically.
The target is the same in assay [10].

Broadly, the Kd is the free concentration of one partner at which half of the binding sites on the other are occupied at equilibrium, for simple one-to-one binding. The low end stands for higher affinity, the high end for lower affinity. As usually defined, the koff is the first-order rate constant of dissociation. A low value points to a long-lived complex. As usually defined, the kon is a measure of how fast the partners come together. Read a high kon as fast association. With “human neonatal Fc receptor, His-tagged (hFcRn-His) (from UniProt P55899 24-297; P61769 21-119)”, the Kd in assay [1] turned out to be 1670 nM; in assay [2] it was 878 nM; in assay [3], 4360 nM; in [4], 1810 nM; in [5], 1800 nM. Further, the off-rate constant (koff) amounted to 0.0475 s⁻¹ in assay [1], 0.0555 s⁻¹ in assay [2], 0.0721 s⁻¹ in [4] and 0.0645 s⁻¹ in assay [5]. The kon in assay [1] amounted to 28500 M⁻¹ s⁻¹; in [2] it was 63200 M⁻¹ s⁻¹; in assay [4], 39800 M⁻¹ s⁻¹; in [5] it was 35700 M⁻¹ s⁻¹.

For the substance trastuzumab (wild-type Fc) (antibody), in assay [6], the average of relative on- and off-rate turned out to be 1 fold; the relative initial off-rate at pH 7.4 (against trastuzumab) was 1 fold; the relative initial on-rate at pH 6.0 (against trastuzumab) stood at 1 fold. Also, in [7], the pH at elution from the FcRn affinity column was 7.65 pH and the retention time on the pH-gradient FcRn affinity column amounted to 40.6 min.

In the case of trastuzumab (wild-type human IgG1 Fc), in assay [8], the Relative on-rate (initial association rate, normalised to trastuzumab) (fold relative to trastuzumab) was 1 and the Relative off-rate (initial dissociation rate, normalised to trastuzumab) (fold relative to trastuzumab) worked out at 1.

“trastuzumab-DHS (L309D/Q311H/N434S) (antibody)”: in assay [6], the average of relative on- and off-rate came to 1.82 fold; the relative initial off-rate at pH 7.4 (against trastuzumab) came out at 1.83 fold; the relative initial on-rate at pH 6.0 (against trastuzumab) is 1.81 fold.

On to trastuzumab-DHS L309D;Q311H;N434S, for which, in [9], the ka turned out to be 35700 M⁻¹ s⁻¹ and the kd came out at 0.0645 s⁻¹. In assay [8], this substance gave a Relative on-rate (initial association rate, normalised to trastuzumab) (fold relative to trastuzumab) of 1.81 and a Relative off-rate (initial dissociation rate, normalised to trastuzumab) (fold relative to trastuzumab) of 1.83.

For “trastuzumab-EML (L309E/Q311M/M428L) (antibody)”, in assay [6], the average of relative on- and off-rate was determined as 1.48 fold; the relative initial off-rate at pH 7.4 (against trastuzumab) came to 1.5 fold; the relative initial on-rate at pH 6.0 (against trastuzumab) was 1.47 fold. Also, in assay [7], the pH at elution from the FcRn affinity column is 7.97 pH and the retention time on the pH-gradient FcRn affinity column is 48 min.

As for trastuzumab-EML L309E;Q311M;M428L, in [9], the ka worked out at 28500 M⁻¹ s⁻¹ and the kd was found to be 0.0475 s⁻¹. In assay [8], this substance returned a Relative on-rate (initial association rate, normalised to trastuzumab) (fold relative to trastuzumab) of 1.47 and a Relative off-rate (initial dissociation rate, normalised to trastuzumab) (fold relative to trastuzumab) of 1.5.

In assay [6], “trastuzumab-PFc29 (Q311R/M428L) (antibody)” registered an average of relative on- and off-rate of 1.77 fold; a relative initial off-rate at pH 7.4 (against trastuzumab) of 1.6 fold; a relative initial on-rate at pH 6.0 (against trastuzumab) of 1.94 fold. In assay [7], this substance registered a pH at elution from the FcRn affinity column of 8.05 pH and a retention time on the pH-gradient FcRn affinity column of 50.2 min.

In assay [9], trastuzumab-PFc29 Q311R;M428L displayed a ka of 39800 M⁻¹ s⁻¹ and a kd of 0.0721 s⁻¹. Further, in [8], the Relative on-rate (initial association rate, normalised to trastuzumab) (fold relative to trastuzumab) stood at 1.94 and the Relative off-rate (initial dissociation rate, normalised to trastuzumab) (fold relative to trastuzumab) is 1.6.

Take “trastuzumab-YML (L309Y/Q311M/M428L) (antibody)”: the serum half-life t1/2 (terminal, beta-phase) in hFcRn transgenic mice (Tg276 hemizygous), single i.v. bolus 5 mg/kg, n = 3 in [10] is 13.5 days. In assay [6], the average of relative on- and off-rate worked out at 1.92 fold; the relative initial off-rate at pH 7.4 (against trastuzumab) stood at 1.74 fold; the relative initial on-rate at pH 6.0 (against trastuzumab) amounted to 2.1 fold. For the same substance, in [7], the pH at elution from the FcRn affinity column was 8.09 pH and the retention time on the pH-gradient FcRn affinity column was found to be 51.2 min.

As for trastuzumab-YML L309Y;Q311M;M428L, in assay [9], the ka is 63200 M⁻¹ s⁻¹ and the kd worked out at 0.0555 s⁻¹. For the same substance, in assay [8], the Relative on-rate (initial association rate, normalised to trastuzumab) (fold relative to trastuzumab) came out at 2.1 and the Relative off-rate (initial dissociation rate, normalised to trastuzumab) (fold relative to trastuzumab) was 1.74.
